Molecular target: the molecule itself
Test: dynamic light scattering; drug-free; 1 mg/mL PanD in 50 mM Tris pH 7.5, 200 mM NaCl, 298 K; octamer

B1: Wild-type Mtb Aspartate decarboxylase PanD (PanDWT), cleaved active form (enzyme)
chain 1: MLRTMLKSKIHRATVTCADLHYVG
chain 2: SVTIDADLMDAADLLEGEQVTIVDIDNGARLVTYAITGERGSGVIGINGAAAHLVHPGDLVILIAYATMDDARARTYQPRIVFVDAYNKPIDMGHDPAFVPENAGELLDPRLGVG
notes: not shown: His6, N-terminal, kept; copies: 8 + 8
In the case of B1, the “stoichiometry N” value is reported as 8.
